Data on one molecule can be found in paper PMC9854190.

For this test, the target named is HA-Akt, P31749. In words: co-immunoprecipitation (FLAG beads), HA-Akt band quantified. Conditions: chain shown with the change, HEK-293 cells expressing D3R, n = 3, read off a plot.
HA-Akt, P31749, sequence (P31749 whole entry): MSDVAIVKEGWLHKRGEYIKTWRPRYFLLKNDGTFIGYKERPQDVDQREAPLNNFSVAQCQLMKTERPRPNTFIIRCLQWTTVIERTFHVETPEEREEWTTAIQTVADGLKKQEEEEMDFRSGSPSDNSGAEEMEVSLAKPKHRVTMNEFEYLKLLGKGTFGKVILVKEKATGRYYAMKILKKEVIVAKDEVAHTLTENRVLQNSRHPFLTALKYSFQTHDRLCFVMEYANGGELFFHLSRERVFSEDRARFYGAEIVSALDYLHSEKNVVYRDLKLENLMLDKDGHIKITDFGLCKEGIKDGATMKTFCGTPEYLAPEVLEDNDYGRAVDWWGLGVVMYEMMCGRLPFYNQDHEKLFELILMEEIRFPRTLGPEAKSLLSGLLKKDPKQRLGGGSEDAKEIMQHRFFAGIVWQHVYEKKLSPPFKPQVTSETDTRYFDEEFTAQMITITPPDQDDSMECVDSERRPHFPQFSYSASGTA

B1: FLAG-USP33, Q8TEY7-2 T154A (protein)
chain: MSAFRNHCPHLDSVGEITKEDLIQKSLGTCQDCKVQGPNLWACLENRCSYVGCGESQVDHSTIHSQETKHYLTVNLTTLRVWCYACSKEVFLDRKLGTQPSLPHVRQPHQIQENSVQDFKIPSNTTLKTPLVAVFDDLDIEADEEDELRARGLAGLKNIGNTCYMNAALQALSNCPPLTQFFLDCGGLARTDKKPAICKSYLKLMTELWHKSRPGSVVPTTLFQGIKTVNPTFRGYSQQDAQEFLRCLMDLLHEELKEQVMEVEEDPQTITTEETMEEDKSQSDVDFQSCESCSNSDRAENENGSRCFSEDNNETTMLIQDDENNSEMSKDWQKEKMCNKINKVNSEGEFDKDRDSISETVDLNNQETVKVQIHSRASEYITDVHSNDLSTPQILPSNEGVNPRLSASPPKSGNLWPGLAPPHKKAQSASPKRKKQHKKYRSVISDIFDGTIISSVQCLTCDRVSVTLETFQDLSLPIPGKEDLAKLHSSSHPTSIVKAGSCGEAYAPQGWIAFFMEYVKRFVVSCVPSWFWGPVVTLQDCLAAFFARDELKGDNMYSCEKCKKLRNGVKFCKVQNFPEILCIHLKRFRHELMFSTKISTHVSFPLEGLDLQPFLAKDSPAQIVTYDLLSVICHHGTASSGHYIAYCRNNLNNLWYEFDDQSVTEVSESTVQNAEAYVLFYRKSSEEAQKERRRISNLLNIMEPSLLQFYISRQWLNKFKTFAEPGPISNNDFLCIHGGVPPRKAGYIEDLVLMLPQNIWDNLYSRYGGGPAVNHLYICHTCQIEAEKIEKRRKTELEIFIRLNRAFQKEDSPATFYCISMQWFREWESFVKGKDGDPPGPIDNTKIAVTKCGNVMLRQGADSGQISEETWNFLQSIYGGGPEVILRPPVVHVDPDILQAEEKIEVETRSL
On to B1, for which the other: Folds of Co-IP runs as follows: (Quin +, parent: est. 0.97) 0.74 fold; (Quin w/+ (desensitization condition), parent: est. 1.7) 0.86 fold; (Veh (Quin -), parent: est. 0.97) 0.9 fold.
